Data published in paper PMC11401910, “Dual client binding sites in the ATP-independent chaperone SurA” (Nature Communications, 2024).

B1: OmpX: unfolded E. coli outer membrane protein OmpX, mature sequence residues 24-171 (protein)
chain: ATSTVTGGYAQSDAQGQMNKMGGFNLKYRYEEDNSPLGVIGSFTYTEKSRTASSGDYNKNQYYGITAGPAYRINDWASIYGVVGVGYGKFQTTEYPTYKHDTSDYGFSYGAGLQFNPMENVALDFSYEQSRIRSVDVGTWIAGVGYRF
B2: SurA-core: SurA construct lacking both PPIase domains (residues 172-389 deleted) (protein)
chain: APQVVDKVAAVVNNGVVLESDVDGLMQSVKLNAAQARQQLPDDATLRHQIMERLIMDQIILQMGQKMGVKISDEQLDQAIANIAKQNNMTLDQMRSRLAYDGLNYNTYRNQIRKEMIISEVRNNEVRRRITILPQEVESLAQQVGNQNDASDAAQKDRAYRMLMNRKFSEEAASWMQEQRASAYVKILSN
modifications: left off: His6, N-terminal, state not stated

Experiments:
SurA = details: read-out: Kd, binding of full-length unfolded OmpX to SurA; cited from earlier work
From the text: (where Ar is an aromatic residue and X is any amino acid), or aromatic-enriched sequences containing an Ar-X-Ar-X-Pro motif. […] Both of these types of peak changes (shifts and/or broadening), can report on binding or conformational changes caused by binding at the location of the corresponding ^13CH3 probe[73],[74].

SurA-WT = target: T1, SurA-WT (Escherichia coli, UniProt P0ABZ6); type: binding; details: pH 8
T1 construct: made in house; host or cells: E. coli BL21(DE3)
Experimental: All NMR experiments were performed on a 950-MHz Bruker Ascend Avance III HD NMR spectrometer equipped with either a Bruker 3 mm TCI or 5 mm TXO triple-resonance cryogenically cooled probe. Peptide binding experiments were performed in 5 mM EDTA, 20 mM Tris-HCl, pH 8.0 with 5 % (v/v) D2O at 25 °C. Binding experiments using full-length OMP sequences also contained 0.8 M urea. Data was acquired for ~16 h with the exception of OMP-containing experiments which were acquired for ~5 h. […] (2D ^1H-^13C SOFAST-HMQC)[70]. […] Errors in the intensity ratios for each peak between two spectra were obtained by propagating the errors according to:1 δR=R*δX/X+δY/Y where δR is the error in the intensity ratio, |R| is the value of the intensity ratio, X and Y are the intensity values for the peak in the first and second spectrum, respectively, and δX and δY are the noise floor values for the first and second spectrum, respectively.
Z-scores for intensity ratio and CSP data were calculated using:3 Zi=xi−μ/σ where xi is the value for a particular peak, and µ and σ are the mean and standard deviation for all peaks, respectively.
For assignment of SurA-WT Ile and Met residues (43 in total) each residue was individually mutated (Supplementary Table 3), and the effect of the mutation assessed by methyl-TROSY NMR. Samples contained 5–70 µM SurA variant. […]

OmpX = details: ~75 pM double-labelled OmpX, 30 μM SurA variant, 20 mM Tris-HCl, 0.1 M urea, 0.02% Tween-20, pH 8.0, ~21 °C; apo-OmpX ~0.85
Experimental: Samples were measured at a volume of 100 μL in an 18 well sample chamber (81817, Ibidi) with the focal spot 50 μm above the cover glass on a custom-built confocal microscope (Supplementary Methods) at room temperature (~21 °C). […] Aged Trolox was prepared by adding 1 mM of Trolox to measurement buffer and incubating the sample overnight at room temperature on a rotary shaker to dissolve before being filtered using a 0.22 μm pore size membrane. Tween-20 (0.02% v/v) was added to prevent non-specific absorption to the glass slide.
The ptu files from the SymPhoTime64 software were converted into HDF5 data files using phconvert v0.9 (available at https://github.com/Photon-HDF5/phconvert). Each of these files was then merged to create one file for each condition. […] Firstly, the background was independently calculated for every 60 s period of measurement. […]
BVA[68] was used to assay for dynamics on the ms timescale occurring during bursts. This analysis compares the expected variance in Eraw based on shot noise against the measured variance in Eraw in each individual burst (si). […] To calculate si, we segmented each burst into consecutive windows of 5 photons, and calculated the standard deviation of all windows within the burst. […]

T1 sequence (P0ABZ6 other isoform, or with tags, fused parts or gaps): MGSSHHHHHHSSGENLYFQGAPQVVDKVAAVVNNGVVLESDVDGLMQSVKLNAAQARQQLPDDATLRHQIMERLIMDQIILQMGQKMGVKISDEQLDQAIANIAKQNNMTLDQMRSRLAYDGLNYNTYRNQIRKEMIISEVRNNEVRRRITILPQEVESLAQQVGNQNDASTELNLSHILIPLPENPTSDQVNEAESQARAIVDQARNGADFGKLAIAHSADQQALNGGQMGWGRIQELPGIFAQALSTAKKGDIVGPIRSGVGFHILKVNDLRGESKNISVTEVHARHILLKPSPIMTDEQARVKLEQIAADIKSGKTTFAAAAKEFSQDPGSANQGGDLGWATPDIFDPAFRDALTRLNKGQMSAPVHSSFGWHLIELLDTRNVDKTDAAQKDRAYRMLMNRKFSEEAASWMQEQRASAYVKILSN

Molecule | Kd (SurA) | Interaction of unfolded OMP with SurA-WT domains by methyl-TROSY NMR, in words (SurA-WT) | Maximum of the raw FRET distribution (Eraw) of OmpX bound to SurA variant (OmpX)
B1 | ~1000 nM | regions in the core and P1 domains directly interact with OmpX, while P2 is largely uninvolved in OmpX binding | 
B2 |  |  | ~ 0.45
